In patent US20050288488 one finds activity data, which are given here for two substances.

The target in data set [1] is AhR-ARNT heterodimer (human AhR, human ARNT) (Homo sapiens) (UniProt P35869+P27540). In words: cell_activity. The following applies: yeast A303 lacZ reporter, average induction over background with bNF or aNF; ligand EC50 7.9e-8 M for bNF.
In data set [2] the test system is LexA(1-202)-AhR N-delta-166 chimera (Escherichia coli? / Mus musculus?). Nature of the data set: cell_activity. The following applies: yeast GRS4 lacZ reporter, average induction over background with bNF or aNF; ligand EC50 6.1e-8 M for bNF.

Chain of AhR-ARNT heterodimer (human AhR, human ARNT) (Homo sapiens) (P35869 whole entry, chain 1 of 2): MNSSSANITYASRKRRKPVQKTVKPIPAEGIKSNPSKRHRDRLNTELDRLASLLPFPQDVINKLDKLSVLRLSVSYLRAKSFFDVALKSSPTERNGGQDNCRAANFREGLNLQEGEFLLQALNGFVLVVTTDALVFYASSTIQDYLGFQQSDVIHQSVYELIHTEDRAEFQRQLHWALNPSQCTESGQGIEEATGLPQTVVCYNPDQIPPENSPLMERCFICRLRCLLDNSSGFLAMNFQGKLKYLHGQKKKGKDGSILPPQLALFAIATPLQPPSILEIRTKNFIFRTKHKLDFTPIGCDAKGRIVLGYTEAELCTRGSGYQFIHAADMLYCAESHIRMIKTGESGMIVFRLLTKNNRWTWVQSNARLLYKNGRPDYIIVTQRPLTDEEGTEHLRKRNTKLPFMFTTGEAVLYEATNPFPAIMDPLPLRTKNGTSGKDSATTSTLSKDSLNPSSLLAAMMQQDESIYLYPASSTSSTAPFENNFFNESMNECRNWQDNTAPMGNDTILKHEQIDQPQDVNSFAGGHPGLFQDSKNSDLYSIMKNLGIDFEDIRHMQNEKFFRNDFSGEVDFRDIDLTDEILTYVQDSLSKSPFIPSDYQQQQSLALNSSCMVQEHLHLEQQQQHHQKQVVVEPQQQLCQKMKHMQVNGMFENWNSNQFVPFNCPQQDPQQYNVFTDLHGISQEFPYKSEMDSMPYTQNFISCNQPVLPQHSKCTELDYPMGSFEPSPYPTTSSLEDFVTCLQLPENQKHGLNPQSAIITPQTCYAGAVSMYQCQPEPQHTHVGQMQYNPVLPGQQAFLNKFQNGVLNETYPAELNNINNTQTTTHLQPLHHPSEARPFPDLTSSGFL
Chain of AhR-ARNT heterodimer (human AhR, human ARNT) (Homo sapiens) (P27540 whole entry, chain 2 of 2): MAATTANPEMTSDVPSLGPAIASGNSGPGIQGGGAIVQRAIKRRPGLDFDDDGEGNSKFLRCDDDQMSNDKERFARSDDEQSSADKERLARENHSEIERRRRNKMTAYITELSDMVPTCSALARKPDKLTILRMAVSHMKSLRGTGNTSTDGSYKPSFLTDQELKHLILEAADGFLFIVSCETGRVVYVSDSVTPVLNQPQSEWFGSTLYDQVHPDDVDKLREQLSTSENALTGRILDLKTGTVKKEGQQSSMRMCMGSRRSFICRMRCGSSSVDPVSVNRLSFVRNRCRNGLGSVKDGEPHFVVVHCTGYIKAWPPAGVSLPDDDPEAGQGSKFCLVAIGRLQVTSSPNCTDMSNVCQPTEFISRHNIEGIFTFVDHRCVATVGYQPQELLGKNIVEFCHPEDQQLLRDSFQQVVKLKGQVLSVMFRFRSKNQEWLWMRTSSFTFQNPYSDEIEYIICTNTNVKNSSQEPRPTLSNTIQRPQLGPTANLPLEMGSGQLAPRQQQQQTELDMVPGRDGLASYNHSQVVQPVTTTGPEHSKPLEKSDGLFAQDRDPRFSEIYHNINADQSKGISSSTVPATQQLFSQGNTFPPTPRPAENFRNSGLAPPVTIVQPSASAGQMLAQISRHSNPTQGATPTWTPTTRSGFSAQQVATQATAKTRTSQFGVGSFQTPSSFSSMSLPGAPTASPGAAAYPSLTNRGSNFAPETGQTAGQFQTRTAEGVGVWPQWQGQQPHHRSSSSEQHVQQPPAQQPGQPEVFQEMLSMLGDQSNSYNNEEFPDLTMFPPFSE

DRE2-DRE3 reporter (pDRE23-Z) gave an activity in data set [1] of 12 fold.

As to eight LexA operator reporter (pSH18-34), the activity in data set [2] came to 90 fold.
